Substrate in data set [1]: Nc1nc2c(ncn2[C@@H]2O[C@H](COP(=O)(O)O)[C@@H](O)[C@H]2O)c(=O)[nH]1
In words: purified protein. To be noted: pH 7.8; 25.0 °C.

Substrate in data set [2]: NC(=O)C1=CN([C@@H]2O[C@H](COP(=O)(O)OP(=O)(O)OC[C@H]3O[C@@H](n4cnc5c(N)ncnc54)[C@H](OP(=O)(O)O)[C@@H]3O)[C@@H](O)[C@H]2O)C=CC1
Put plainly: purified protein. To be noted: pH 7.8; 25.0 °C.

B1: Mtb GMPR (Mtb GuaB1) (Mycobacterium tuberculosis H37Rv) (protein)
chain: MRFLDGHPPGYDLTYNDVFIVPNRSEVASRFDVDLSTADGSGTTIPVVVANMTAVAGRRMAETVARRGGIVILPQDLPIPAVKQTVAFVKSRDLVLDTPVTLAPDDSVSDAMALIHKRAHGVAVVILEGRPIGLVRESSCLGVDRFTRVRDIAVTDYVTAPAGTEPRKIFDLLEHAPVDVAVLTDADGTLAGVLSRTGAIRAGIYTPATDSAGRLRIGAAVGINGDVGAKARALAEAGVDVLVIDTAHGHQVKTLDAIKAVSALDLGLPLAAGNVVSAEGTRDLLKAGANVVKVGVGPGAMCTTRMMTGVGRPQFSAVLECASAARQLGGHIWADGGIRHPRDVALALAAGASNVMIGSWFAGTYESPGDLMRDRDDQPYKESYGMASKRAVVARTGADNPFDRARKALFEEGISTSRMGLDPDRGGVEDLIDHITSGVRSTCTYVGASNLAELHERAVVGVQSGAGFAEGHPLPAGW
Take B1: the figures for the K0.5 in data set [1] and in data set [2] were 10.5 ± 1.17 µM and 63 ± 7 µM, respectively.

For the origin of these results see paper PMC9790621.
